Results on 39 molecules are retold here after patent publication US20240018252A1 (Pfizer, published 2024).

Assay [1] deals with T1, human BCMA (human, UniProt Q02223 1-54).
T1 construct: also called huBCMA; hBCMA
T1 sequence: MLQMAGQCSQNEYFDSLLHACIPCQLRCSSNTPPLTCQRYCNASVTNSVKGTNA
The assay is described as follows: SPR, immobilised IgG, 37° C. In general terms: SPR reads the build-up and loss of mass on a sensor chip optically.

Assay [2] deals with T2, cyBCMA (cynomolgus, UniProt A0A2K5UD97 1-53).
T2 construct: Soluble analyte in SPR; construct not described; also called cyno BCMA
T2 sequence (A0A2K5UD97 entry or part of it): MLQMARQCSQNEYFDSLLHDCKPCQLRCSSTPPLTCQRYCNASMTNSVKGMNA
The assay is described as follows: SPR, immobilised IgG, 37° C.

Where a chain is given by its changes, count along the chain named.

B1: L3.PY/H2.DY (antibody, V domains shown)
VH: EVQLLESGGGLVQPGGSLRLSCAASGFTFGSYAMTWVRQAPGKGLEWVSAIDYSGGNTFYADSVKGRFTISRDNSKNTLYLQMNSLRAEDTAVYYCARVSPIASGMDYWGQGTLVTVSS
VL: EIVLTQSPGTLSLSPGERATLSCRASQSVSSSYLAWYQQKPGQAPRLLIYGASSRATGIPDRFSGSGSGTDFTLTISRLEPEDFAVYYCQHYPYPPSFTFGQGTKVEIK
notes: IgG in the assay
Turning to B1, the “T½” value in assay [1] is 8.37 min; in assay [2], 1.87 min.

B2: L3.PY/L1.PS/H2.YQ (antibody, V domains shown)
VH: B1 VH with D52S, S54Q
VL: B1 VL with L34P, A35S
notes: IgG in the assay
As for B2, the “T½” value in assay [1] came out at 2.69 min; in assay [2] it was 3.09 min.

B3: L3.PY/L1.PS/H2.DY (antibody, V domains shown)
VH: B1 VH
VL: B1 VL with L34P, A35S
notes: IgG in the assay
Take B3: the “T½” value in assay [1] was found to be 3.2 min; in assay [2], 3.06 min.

B4: L3.PY/L1.AH/H3.AQ (antibody, V domains shown)
VH: B1 VH with D52S, Y53G, S104A, G105Q
VL: B1 VL with S31A, S32H
notes: IgG in the assay
Take B4: the “T½” value in assay [1] amounted to 5.85 min; in assay [2], 2.9 min.

B5: L3.PY/L1.PS/H2.QR (antibody, V domains shown)
VH: B1 VH with D52S, Y53G, S63Q, V64R
VL: B1 VL with L34P, A35S
notes: IgG in the assay
Regarding B5, the “T½” value in assay [1] is 0.11 min; in assay [2], 17.2 min.

B6: L3.PY/L1.AH/H2.YQ (antibody, V domains shown)
VH: B1 VH with D52S, S54Q
VL: B1 VL with S31A, S32H
notes: IgG in the assay
For the molecule B6, the “T½” value in assay [1] is 6 min; in assay [2], 2.68 min.

B7: L3.PY/L1.PS/H2.HA (antibody, V domains shown)
VH: B1 VH with D52S, Y53H, S54A
VL: B1 VL with L34P, A35S
notes: IgG in the assay
Regarding B7, the figures for the “T½” value in assay [1] and in assay [2] were 1.09 min and 4.3 min, respectively.

B8: L3.PY/L3.KY/H2.HA (antibody, V domains shown)
VH: B1 VH with D52S, Y53H, S54A
VL: B1 VL with Q90K, H91Y
notes: IgG in the assay
As to B8, in assay [1], the “T½” value came to 7.1 min.

B9: L3.PY/L3.KY/H2.DY (antibody, V domains shown)
VH: B1 VH
VL: B1 VL with Q90K, H91Y
notes: IgG in the assay
As to B9, the “T½” value in assay [1] is 18 min.

B10: L3.PY/L3.KY/H2.QL (antibody, V domains shown)
VH: B1 VH with D52S, Y53G, S63Q, V64L
VL: B1 VL with Q90K, H91Y
notes: IgG in the assay
For B10, the “T½” value in assay [1] was determined as 5.56 min.

B11: L3.PY/H2.YQ (antibody, V domains shown)
VH: B1 VH with D52S, S54Q
VL: B1 VL
notes: IgG in the assay
As for B11, the “T½” value in assay [1] came out at 7.41 min; in assay [2], 1.86 min.

B12: L3.PY/H3.AE (antibody, V domains shown)
VH: B1 VH with D52S, Y53G, S104A, G105E
VL: B1 VL
notes: IgG in the assay
With B12, the “T½” value was 8.32 min in assay [1] and 2.29 min in assay [2].

B13: L3.PY/H3.AQ (antibody, V domains shown)
VH: B1 VH with D52S, Y53G, S104A, G105Q
VL: B1 VL
notes: IgG in the assay
For the molecule B13, the figures for the “T½” value in assay [1] and in assay [2] were 6.69 min and 2.14 min, respectively.

B14: L3.PY/L3.KY/H2.LT (antibody, V domains shown)
VH: B1 VH with D52S, Y53L, S54T
VL: B1 VL with Q90K, H91Y
notes: IgG in the assay
As to B14, the “T½” value in assay [1] was determined as 12.8 min.

B15: L3.PY/L1.AH/H2.LT (antibody, V domains shown)
VH: B1 VH with D52S, Y53L, S54T
VL: B1 VL with S31A, S32H
notes: IgG in the assay
On to B15, for which the figures for the “T½” value in assay [1] and in assay [2] were 9.38 min and 3.91 min, respectively.

B16: L3.PY/L1.AH/P6E01 (antibody, V domains shown)
VH: B1 VH with D52S, Y53G
VL: B1 VL with S31A, S32H
notes: IgG in the assay
In the case of B16, the entries for the “T½” value in assay [1] and in assay [2] were 9.19 min and 2.02 min, respectively.

B17: L3.PY/L1.AH/H2.DY (antibody, V domains shown)
VH: B1 VH
VL: B1 VL with S31A, S32H
notes: IgG in the assay
Turning to B17, the “T½” value in assay [1] is 7.62 min; in assay [2], 2.56 min.

B18: L3.PY/H2.QR (antibody, V domains shown)
VH: B1 VH with D52S, Y53G, S63Q, V64R
VL: B1 VL
notes: IgG in the assay
For the molecule B18, the “T½” value in assay [1] was 9.75 min; in assay [2], 1.76 min.

B19: L3.PY/H2.HA (antibody, V domains shown)
VH: B1 VH with D52S, Y53H, S54A
VL: B1 VL
notes: IgG in the assay
For B19, the “T½” value in assay [1] amounted to 7.89 min; in assay [2] it was 1.53 min.

B20: L3.PY/L1.FF/P6E01 (antibody, V domains shown)
VH: B1 VH with D52S, Y53G
VL: B1 VL with S32F, Y33F
notes: IgG in the assay
On to B20, for which the “T½” value is 8.18 min in assay [1] and 1.96 min in assay [2].

B21: L3.PY/H2.QL (antibody, V domains shown)
VH: B1 VH with D52S, Y53G, S63Q, V64L
VL: B1 VL
notes: IgG in the assay
Consider B21, for which the “T½” value in assay [1] was 5.31 min; in assay [2] it was 0.91 min.

B22: L3.PY/L1.AH/H2.QR (antibody, V domains shown)
VH: B1 VH with D52S, Y53G, S63Q, V64R
VL: B1 VL with S31A, S32H
notes: IgG in the assay
In the case of B22, the “T½” value was determined as 6.39 min in assay [1] and 2.35 min in assay [2].

B23: L3.PY/L1.PH/P6E01 (antibody, V domains shown)
VH: B1 VH with D52S, Y53G
VL: B1 VL with S31P, S32H
notes: IgG in the assay
As for B23, the “T½” value in assay [1] worked out at 12.7 min; in assay [2], 1.46 min.

B24: L3.PY/L1.PS/H2.QL (antibody, V domains shown)
VH: B1 VH with D52S, Y53G, S63Q, V64L
VL: B1 VL with L34P, A35S
notes: IgG in the assay
As for B24, the “T½” value in assay [1] came out at 0.04 min; in assay [2], 18.2 min.

B25: L3.PY/L1.PS/H3.AE (antibody, V domains shown)
VH: B1 VH with D52S, Y53G, S104A, G105E
VL: B1 VL with L34P, A35S
notes: IgG in the assay
With B25, the “T½” value in assay [1] amounted to 7.93 min; in assay [2], 2.8 min.

B26: L3.PY/L1.AH/H2.QL (antibody, V domains shown)
VH: B1 VH with D52S, Y53G, S63Q, V64L
VL: B1 VL with S31A, S32H
notes: IgG in the assay
For B26, the entries for the “T½” value in assay [1] and in assay [2] were 7.22 min and 1.21 min, respectively.

B27: L3.PY/H3.YA (antibody, V domains shown)
VH: B1 VH with D52S, Y53G, A103Y, S104A
VL: B1 VL
notes: IgG in the assay
As to B27, the results for the “T½” value in assay [1] and in assay [2] were 9.82 min and 2.14 min, respectively.

B28: L3.PY/L3.KY/H3.YA (antibody, V domains shown)
VH: B1 VH with D52S, Y53G, A103Y, S104A
VL: B1 VL with Q90K, H91Y
notes: IgG in the assay
For B28, in assay [1], the “T½” value was 12.7 min.

B29: L3.PY/H3.TAQ (antibody, V domains shown)
VH: B1 VH with D52S, Y53G, A97T, S104A, G105Q
VL: B1 VL
notes: IgG in the assay; also called P6E01 L3PY/H3TAQ
Turning to B29, the results for the “T½” value in assay [1] and in assay [2] were 10.1 min and 2.64 min, respectively.

B30: L3.PY/L3.KY/H3.TAQ (antibody, V domains shown)
VH: B1 VH with D52S, Y53G, A97T, S104A, G105Q
VL: B1 VL with Q90K, H91Y
notes: IgG in the assay
For the molecule B30, the “T½” value in assay [1] was determined as 17.8 min.

B31: L3.PY/L3.KY/H2.YQ (antibody, V domains shown)
VH: B1 VH with D52S, S54Q
VL: B1 VL with Q90K, H91Y
notes: IgG in the assay
On to B31, for which, in assay [1], the “T½” value was found to be 7.02 min.

B32: L3.PY/L1.PS/H2.LT (antibody, V domains shown)
VH: B1 VH with D52S, Y53L, S54T
VL: B1 VL with L34P, A35S
notes: IgG in the assay
Regarding B32, the results for the “T½” value in assay [1] and in assay [2] were 2.49 min and 2.81 min, respectively.

B33: L3.PY/H2.LT (antibody, V domains shown)
VH: B1 VH with D52S, Y53L, S54T
VL: B1 VL
notes: IgG in the assay
Take B33: the “T½” value amounted to 8.95 min in assay [1] and 1.53 min in assay [2].

B34: L3.PY/L1.AH/H3.AE (antibody, V domains shown)
VH: B1 VH with D52S, Y53G, S104A, G105E
VL: B1 VL with S31A, S32H
notes: IgG in the assay
Consider B34, for which the “T½” value in assay [1] was found to be 6.7 min; in assay [2], 3.25 min.

B35: L3.PY/L3.KY/H2.QR (antibody, V domains shown)
VH: B1 VH with D52S, Y53G, S63Q, V64R
VL: B1 VL with Q90K, H91Y
notes: IgG in the assay
In the case of B35, in assay [1], the “T½” value is 11.7 min.

B36: L3.PY/L3.KF/H3.YA (antibody, V domains shown)
VH: B1 VH with D52S, Y53G, A103Y, S104A
VL: B1 VL with Q90K, H91F
notes: IgG in the assay
With B36, the “T½” value in assay [1] stood at 7.85 min.

B37: L3.PY/L1.AH/H3.YA (antibody, V domains shown)
VH: B1 VH with D52S, Y53G, A103Y, S104A
VL: B1 VL with S31A, S32H
notes: IgG in the assay
For B37, the “T½” value amounted to 7.73 min in assay [1] and 2.2 min in assay [2].

B38: L3.PY/L1.AH/H2.HA (antibody, V domains shown)
VH: B1 VH with D52S, Y53H, S54A
VL: B1 VL with S31A, S32H
notes: IgG in the assay
In the case of B38, the “T½” value in assay [1] came out at 6.37 min; in assay [2], 2.63 min.

B39: L3.PY/L1.PS/H3.AQ (antibody, V domains shown)
VH: B1 VH with D52S, Y53G, S104A, G105Q
VL: B1 VL with L34P, A35S
notes: IgG in the assay
On to B39, for which the results for the “T½” value in assay [1] and in assay [2] were 6.46 min and 2.67 min, respectively.
